Reference: US11319374B2, “Inhibitors of prototypic galectin dimerization and uses thereof” (INSTITUT NATIONAL DE LA RECHERCHE SCIENTIFIQUE, priority 2015, dated 2022)

Molecular target: T1, hGal-7/Bcl-2 heterodimer (Homo sapiens, UniProt P47929)
T1 construct: host or cells: E. coli BL21 (DE3) (hGal-7)
Test: hGal-7/Bcl-2 heterodimer disruption, low-SDS Western blotting with anti-Gal-7 antibody
Type: biochemical
Settings: hGal-7 and Bcl-2 each 0.5 μM, especially at the highest dose of 500 μM, FIG. 12C
Protocol: FIGS. 12A to 12C show the dose-dependent disruption of the hGal-7/Bcl-2 heterodimer in the presence of the hGal-7(129-135) peptide. FIGS. 12A and 12B: detection of hGal-7/Bcl-2 heterodimers in the presence of the indicated amounts of recombinant Bcl-2 using an anti-gal-7 antibody (FIG. 12A) or an anti-Bcl-2 antibody (FIG. 12B). FIG. 12C: the recombinant hGal-7 and Bcl-2 (each at 0.5 μM) were incubated with increasing concentrations of hGal-7(129-135) in 20 mM potassium phosphate buffer (pH 7.1). The effect of hGal-7(129-135) on the homodimerization and heterodimerization (with Bcl-2) of hGal-7 was assessed by Western blotting in low-SDS conditions with an anti-Gal-7 antibody.
Production of recombinant hGal-7 and hGal-1. Human Gal-7 cDNA was cloned into pET-22b(+) using Ndel and HindIII restriction enzymes. Human pET-Gal-1 vector was generously donated by Dr. S. Sato (McGill University, QC, Canada). The proteins were produced in E. coli BL21 (DE3) cells at 37° C. Isopropyl p-D-1-thiogalactopyranoside (IPTG) (1 mM) was added to the bacterial culture at OD600nm=0.6-0.7 and then incubated for 4 h at 37° C. to allow protein production. […] Purified fractions were analyzed by SDS-PAGE. […]

T1 sequence (P47929 2-136 limits assumed, one chain of several): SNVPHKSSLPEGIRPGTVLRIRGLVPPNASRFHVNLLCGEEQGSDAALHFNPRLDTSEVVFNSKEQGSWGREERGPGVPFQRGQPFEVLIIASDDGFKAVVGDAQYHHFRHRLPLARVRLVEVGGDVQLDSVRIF

H-Leu-Asp-Ser-Val-Arg-Ile-Phe-NH2 (H-LDSVRIF-NH2; listed as Homo sapiens) [hGal-7(129-135), peptide corresponding to residues 129-135 of hGal-7]
amount of hGal-7/Bcl-2 heterodimers: decreased
